In test [1] the target is T1, procollagen C-proteinase enhancer-2 with N-terminal 6His-tag (human, UniProt Q9UKZ9 24-415).
T1 chain: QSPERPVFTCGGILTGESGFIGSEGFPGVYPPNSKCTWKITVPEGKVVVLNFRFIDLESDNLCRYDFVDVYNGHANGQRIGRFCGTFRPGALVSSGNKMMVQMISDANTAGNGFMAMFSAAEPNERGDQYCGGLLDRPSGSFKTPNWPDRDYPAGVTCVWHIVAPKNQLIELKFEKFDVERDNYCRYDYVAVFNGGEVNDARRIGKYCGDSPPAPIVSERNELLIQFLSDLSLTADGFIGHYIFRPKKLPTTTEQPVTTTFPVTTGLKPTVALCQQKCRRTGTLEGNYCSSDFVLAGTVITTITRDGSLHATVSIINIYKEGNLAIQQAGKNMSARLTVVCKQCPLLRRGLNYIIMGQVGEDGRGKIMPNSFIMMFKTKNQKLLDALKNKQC
The test is described as follows: SPR; steady-state fit.

The target of test [2] is T1, procollagen C-proteinase enhancer-2 …. The test is described as follows: SPR; heterogeneous ligand model, second site KD2 (Rmax2 58%).
Test [3] has the same target. The test is described as follows: SPR; heterogeneous ligand model, KD1 (Rmax1 42%).
Test [4] has the same target. Kind of test: SPR; heterogeneous ligand model, kd1.
Test [5] has the same target. The test is described as follows: SPR; heterogeneous ligand model, second site kd2.
Test [6] has as its target T2, bone morphogenetic protein-1 (human, UniProt P13497-2 121-730).
T2 chain: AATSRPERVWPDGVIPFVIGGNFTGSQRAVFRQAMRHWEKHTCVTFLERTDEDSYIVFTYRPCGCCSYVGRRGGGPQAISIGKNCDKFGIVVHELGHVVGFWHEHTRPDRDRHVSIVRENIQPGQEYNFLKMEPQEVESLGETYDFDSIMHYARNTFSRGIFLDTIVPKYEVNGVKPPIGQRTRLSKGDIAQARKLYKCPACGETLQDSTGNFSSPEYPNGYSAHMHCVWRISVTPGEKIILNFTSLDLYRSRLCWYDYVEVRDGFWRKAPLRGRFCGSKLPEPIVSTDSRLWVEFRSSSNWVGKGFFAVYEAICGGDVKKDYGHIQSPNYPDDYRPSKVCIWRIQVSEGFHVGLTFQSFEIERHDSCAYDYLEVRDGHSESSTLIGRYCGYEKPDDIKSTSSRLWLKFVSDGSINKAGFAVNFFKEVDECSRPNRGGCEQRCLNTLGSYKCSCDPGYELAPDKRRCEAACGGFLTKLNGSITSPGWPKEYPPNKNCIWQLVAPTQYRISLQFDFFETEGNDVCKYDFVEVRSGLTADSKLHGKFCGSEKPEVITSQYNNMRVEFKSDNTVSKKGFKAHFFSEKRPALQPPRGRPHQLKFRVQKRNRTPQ
The test is described as follows: SPR; steady-state fit.

Test [7] addresses T2, bone morphogenetic protein-1. Kind of test: SPR; heterogeneous ligand model, KD1 (Rmax1 14%).
Test [8] shares this target. The test is described as follows: SPR; heterogeneous ligand model, second site KD2 (Rmax2 86%).
Test [9] shares this target. The test is described as follows: SPR; heterogeneous ligand model, kd1.
Test [10] shares this target. The test is described as follows: SPR; heterogeneous ligand model, second site kd2.

B1: BMP-1[catCUB1CUB2] (domain or fragment)
chain: AATSRPERVWPDGVIPFVIGGNFTGSQRAVFRQAMRHWEKHTCVTFLERTDEDSYIVFTYRPCGCCSYVGRRGGGPQAISIGKNCDKFGIVVHELGHVVGFWHEHTRPDRDRHVSIVRENIQPGQEYNFLKMEPQEVESLGETYDFDSIMHYARNTFSRGIFLDTIVPKYEVNGVKPPIGQRTRLSKGDIAQARKLYKCPACGETLQDSTGNFSSPEYPNGYSAHMHCVWRISVTPGEKIILNFTSLDLYRSRLCWYDYVEVRDGFWRKAPLRGRFCGSKLPEPIVSTDSRLWVEFRSSSNWVGKGFFAVYEAICGGDVKKDYGHIQSPNYPDDYRPSKVCIWRIQVSEGFHVGLTFQSFEIERHDSCAYDYLEVRDGHSESSTLIGRYCGYEKPDDIKSTSSRLWLKFVSDGSINKAGFAVNFFK
As to B1, the dissociation constant Kd in test [1] came to 0.024 µM; in [2] it was 0.066 µM; in test [3] it was 0.00184 µM. Also, the koff in [4] was determined as 0.0024 s⁻¹; in [5], 0.03 s⁻¹.

B2: CUB2NTR region of PCPE-2 (domain or fragment)
chain: CGGLLDRPSGSFKTPNWPDRDYPAGVTCVWHIVAPKNQLIELKFEKFDVERDNYCRYDYVAVFNGGEVNDARRIGKYCGDSPPAPIVSERNELLIQFLSDLSLTADGFIGHYIFRPKKLPTTTEQPVTTTFPVTTGLKPTVALCQQKCRRTGTLEGNYCSSDFVLAGTVITTITRDGSLHATVSIINIYKEGNLAIQQAGKNMSARLTVVCKQCPLLRRGLNYIIMGQVGEDGRGKIMPNSFIMMFKTKNQKLLDALKNKQC
Regarding B2, the dissociation constant Kd worked out at 0.052 µM in test [6], 0.00629 µM in [7] and 0.0266 µM in test [8]. Also, the off-rate (koff) in [9] came to 0.005 s⁻¹; in test [10] it was 0.198 s⁻¹.
